This is an account of results in patent US20220306739A1 (Janssen / Centocor, published 2022).

The target of assay [1] is T1, B cell maturation antigen (BCMA) (UniProt Q02223 1-184, limits assumed).
T1 sequence (looked up): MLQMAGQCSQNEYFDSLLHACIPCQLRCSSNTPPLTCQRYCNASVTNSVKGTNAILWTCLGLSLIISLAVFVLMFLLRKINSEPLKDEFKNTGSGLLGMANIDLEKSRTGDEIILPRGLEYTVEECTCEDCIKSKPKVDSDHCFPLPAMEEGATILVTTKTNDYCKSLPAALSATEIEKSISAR
Kind of assay: cell-based or functional assay.

The target in assay [2] is T1, B cell maturation antigen (BCMA). Put plainly: cell-based or functional assay. This is another data set of the same source.
Assay [3] addresses T2, CD123 (human, UniProt P26951 19-378).
T2 construct: whole, on cells; also called IL3RA; interleukin-3 receptor
Kind of assay: flow cytometry, % Binding on Kasumi-3 cells (CD123 expressing cell line). The source says:
(§1) Cells were visualized on forward and sideward scatter and doublets were excluded. No secondary antibody control was used to establish background fluorescence and to gate on specific population. Background value was subtracted from main samples to get specific binding value.
(In general: Flow cytometry measures light scatter and fluorescence of single cells or particles in a stream.)

Assay [4] concerns the target T2, CD123. Kind of assay: flow cytometry, % binding of bispecific antibody to Kasumi-3 cells (CD123 expressing).
Description: as §1

Assay [5] deals with T2, CD123. Kind of assay: flow cytometry, % Binding on Kasumi-3 cells (TAA expressing cell line); same graph as FIG. 30A.
Description: as §1

Assay [6] has as its target T2, CD123. Put plainly: flow cytometry, % Binding; graph under the Kasumi-3 histogram, Kasumi-3 cells by legend paragraph 83.
Description: as §1

For assay [7], the target named is T1, B cell maturation antigen (BCMA). Kind of assay: cell-based or functional assay. This is another data set of the same source.
Assay [8] has the same target. Kind of assay: cell-based or functional assay. This is another data set of the same source.
For assay [9] the target is unchanged. Kind of assay: cell-based or functional assay. This is another data set of the same source.
The target in assay [10] is T3, CD33 (human, UniProt P20138 18-364).
T3 construct: whole, on cells; also called CD33 on MOLM-13, Kasumi-1, OCI-AML-3 and Kasumi-3 cells
Put plainly: FACS binding to MOLM-13 cells (CD33 high), MFI.

Assay [11] has as its target T3, CD33. Put plainly: FACS binding to Kasumi-1 cells (CD33 med), MFI.
Assay [12] deals with T3, CD33. Put plainly: FACS binding to OCI-AML-3 cells (CD33 low), MFI.

Like-named read-outs stand apart in the source and are kept apart here.

T3 sequence (P20138 18-364): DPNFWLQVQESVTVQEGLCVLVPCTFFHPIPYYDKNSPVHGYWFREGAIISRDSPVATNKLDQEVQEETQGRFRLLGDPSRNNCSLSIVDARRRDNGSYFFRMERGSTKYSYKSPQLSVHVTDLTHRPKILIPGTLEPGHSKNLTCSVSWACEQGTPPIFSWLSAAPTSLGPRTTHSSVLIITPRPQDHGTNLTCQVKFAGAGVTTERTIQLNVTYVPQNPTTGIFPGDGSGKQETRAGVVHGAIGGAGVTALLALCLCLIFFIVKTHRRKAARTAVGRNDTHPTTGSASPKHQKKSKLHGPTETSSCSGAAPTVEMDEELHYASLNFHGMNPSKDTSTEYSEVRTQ
T2 sequence (P26951 19-378): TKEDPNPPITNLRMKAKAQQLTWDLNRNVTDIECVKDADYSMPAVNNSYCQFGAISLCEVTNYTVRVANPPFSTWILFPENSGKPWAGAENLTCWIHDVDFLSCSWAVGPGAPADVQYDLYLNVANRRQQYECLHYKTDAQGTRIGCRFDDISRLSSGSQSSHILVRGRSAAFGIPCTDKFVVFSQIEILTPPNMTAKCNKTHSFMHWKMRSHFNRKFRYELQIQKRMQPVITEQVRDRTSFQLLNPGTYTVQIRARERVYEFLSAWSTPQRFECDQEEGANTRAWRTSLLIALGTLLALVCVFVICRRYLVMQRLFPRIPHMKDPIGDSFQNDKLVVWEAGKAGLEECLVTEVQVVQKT

B1: anti-TRGV9/anti-BCMA bispecific antibody BCV9B106 (B3) (bispecific antibody, human IgG1, kappa, L234A L235A)
scFv-Fc: DIQMTQSPASLSASVGETVTITCRASENIHNYLAWYQQKQGKSPQLLVYNAKTLADGVPSRFSGSGSGTQYSLKINSLQPEDFGNYYCQHFWSYPLTFGAGTKLELKGGSEGKSSGSGSESKSTGGSQGQMQQSGAELVKPGASVKLSCKTSGFTFSSNYISWLKQKPGQSLEWIAWIHGGTGGIGYNQKFTGKAQLTVDTSSTTAYMQFSSLTTEDSAIYYCARRGYGAWFAYWGQGTLVTVSAEPKSSDKTHTCPPCPAPEAAGGPSVFLFPPKPKDTLMISRTPEVTCVVVSVSHEDPEVKFNWYVDGVEVHNAKTKPREEQYNSTYRVVSVLTVLHQDWLNGKEYKCKVSNKALPAPIEKTISKAKGQPREPQVYVYPPSREEMTKNQVSLTCLVKGFYPSDIAVEWESNGQPENNYKTTPPVLDSDGSFALVSKLTVDKSRWQQGNVFSCSVMHEALHNHYTQKSLSLSPGK
heavy: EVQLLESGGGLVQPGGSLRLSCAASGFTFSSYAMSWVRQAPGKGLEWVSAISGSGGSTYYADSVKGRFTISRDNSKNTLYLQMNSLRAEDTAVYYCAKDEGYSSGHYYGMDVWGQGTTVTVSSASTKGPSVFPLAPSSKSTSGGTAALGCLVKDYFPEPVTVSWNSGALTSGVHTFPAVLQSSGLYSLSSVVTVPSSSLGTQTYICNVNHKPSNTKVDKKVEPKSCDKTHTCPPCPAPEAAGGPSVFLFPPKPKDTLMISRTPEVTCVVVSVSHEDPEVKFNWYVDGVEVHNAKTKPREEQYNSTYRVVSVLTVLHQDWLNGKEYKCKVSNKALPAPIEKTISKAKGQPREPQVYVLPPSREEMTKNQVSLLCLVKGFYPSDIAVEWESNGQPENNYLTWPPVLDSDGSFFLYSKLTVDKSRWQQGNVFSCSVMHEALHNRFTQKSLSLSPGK
light: EIVLTQSPGTLSLSPGERATLSCRASQSISSSFLTWYQQKPGQAPRLLIYGASSRATGIPDRFSGGGSGTDFTLTISRLEPEDFAVYYCQHYGSSPMYTFGQGTKLEIKRTVAAPSVFIFPPSDEQLKSGTASVVCLLNNFYPREAKVQWKVDNALQSGNSQESVTEQDSKDSTYSLSSTLTLSKADYEKHKVYACEVTHQGLSSPVTKSFNRGEC
In the case of B1, in assay [1], the “EC50 of γδ T-cell mediated cytotoxicity of H929 tumor cells” value amounted to 33.7 nM.

B2: anti-TRGV9/anti-BCMA bispecific antibody (HC1: VG9B420-LH-scFv; HC2: BCMA-Fab (BCMB519-Fab)) (BCV9B71.001) (bispecific antibody, human IgG1, kappa, L234A L235A)
scFv: EIVMTQSPGTLSLSPGDRATLSCRASQSVASSYLAWYQQKPGQSPRLLIYGASSRATGIPDRFSGSGSGTDFTLTISRLEPEDFAVYYCQQYGSSPPYTFGQGTRLEIKGGSEGKSSGSGSESKSTGGSEVQLVESGGGLVKPGGSLRLSCSASGFTFSNYDMNWVRQAPGKGLEWVSSISSSSSYIYYADSVKGRFTISRDNAKNSLYLQMNSLRAEDTAVYHCARDVGVTTDYYYYGMDVWGQGTMVTVSSEPKSSDKTHTCPPCPAPEAAGGPSVFLFPPKPKDTLMISRTPEVTCVVVSVSHEDPEVKFNWYVDGVEVHNAKTKPREEQYNSTYRVVSVLTVLHQDWLNGKEYKCKVSNKALPAPIEKTISKAKGQPREPQVYVYPPSREEMTKNQVSLTCLVKGFYPSDIAVEWESNGQPENNYKTTPPVLDSDGSFALVSKLTVDKSRWQQGNVFSCSVMHEALHNHYTQKSLSLSPGK
heavy: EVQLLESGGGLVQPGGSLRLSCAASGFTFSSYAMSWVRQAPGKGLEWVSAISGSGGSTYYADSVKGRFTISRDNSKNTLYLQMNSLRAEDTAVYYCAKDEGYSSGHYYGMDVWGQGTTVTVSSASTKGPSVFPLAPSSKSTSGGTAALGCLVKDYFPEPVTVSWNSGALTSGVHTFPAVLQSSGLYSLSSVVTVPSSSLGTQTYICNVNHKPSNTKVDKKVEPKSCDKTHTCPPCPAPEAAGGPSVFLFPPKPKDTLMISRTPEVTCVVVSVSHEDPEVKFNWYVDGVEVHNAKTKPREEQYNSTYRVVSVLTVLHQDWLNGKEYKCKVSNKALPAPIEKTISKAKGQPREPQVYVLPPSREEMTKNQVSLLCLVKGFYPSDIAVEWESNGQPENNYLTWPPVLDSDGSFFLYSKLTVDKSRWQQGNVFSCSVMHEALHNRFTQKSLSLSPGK
light: EIVLTQSPGTLSLSPGERATLSCRASQSISSSFLTWYQQKPGQAPRLLIYGASSRATGIPDRFSGGGSGTDFTLTISRLEPEDFAVYYCQHYGSSPMYTFGQGTKLEIKRTVAAPSVFIFPPSDEQLKSGTASVVCLLNNFYPREAKVQWKVDNALQSGNSQESVTEQDSKDSTYSLSSTLTLSKADYEKHKVYACEVTHQGLSSPVTKSFNRGEC
Take B2: the “EC50 of γδ T-cell mediated cytotoxicity of H929 tumor cells” value in [2] was 3.2 nM.

B3: VG1 (anti-TRGV9/anti-CD123 bispecific antibody) (bispecific antibody, human IgG4 S228P, kappa, F234A L235A)
heavy 1: EVQLQQSGAELARPGASVKLSCKASGFTFTDHYINWVKQRTGQGLEWIGQIYPGDGNTYYNQKFKGKATLTADKSSSTAYMQLSSLTSEDSAVYFCAPNYGDYTIDFWGQGTSVTVSSASTKGPSVFPLAPCSRSTSESTAALGCLVKDYFPEPVTVSWNSGALTSGVHTFPAVLQSSGLYSLSSVVTVPSSSLGTKTYTCNVDHKPSNTKVDKRVESKYGPPCPPCPAPEAAGGPSVFLFPPKPKDTLMISRTPEVTCVVVDVSQEDPEVQFNWYVDGVEVHNAKTKPREEQFNSTYRVVSVLTVLHQDWLNGKEYKCKVSNKGLPSSIEKTISKAKGQPREPQVYTLPPSQEEMTKNQVSLSCAVKGFYPSDIAVEWESNGQPENNYKTTPPVLDSDGSFFLVSRLTVDKSRWQEGNVFSCSVMHEALHNRFTQKSLSLSLGK
light 1: DIVMSQSPSSLAVSVGEKVTMSCKSSQSLLYSSNQKNYLAWYQQKPGQSPKLLIYWASTRESGVPDRFTGSGSGTDFTLTISSVKAEDLAVYYCQQYYRYHTFGTGTKLEIKRTVAAPSVFIFPPSDEQLKSGTASVVCLLNNFYPREAKVQWKVDNALQSGNSQESVTEQDSKDSTYSLSSTLTLSKADYEKHKVYACEVTHQGLSSPVTKSFNRGEC
heavy 2: EVQLVQSGAEVKKPGESLKISCKGSGYSFTSYWISWVRQMPGKGLEWMGIIDPSDSDTRYSPSFQGQVTISADKSISTAYLQWSSLKASDTAMYYCARGDGSTDLDYWGQGTLVTVSSASTKGPSVFPLAPCSRSTSESTAALGCLVKDYFPEPVTVSWNSGALTSGVHTFPAVLQSSGLYSLSSVVTVPSSSLGTKTYTCNVDHKPSNTKVDKRVESKYGPPCPPCPAPEAAGGPSVFLFPPKPKDTLMISRTPEVTCVVVDVSQEDPEVQFNWYVDGVEVHNAKTKPREEQFNSTYRVVSVLTVLHQDWLNGKEYKCKVSNKGLPSSIEKTISKAKGQPREPQVYTLPPSQEEMTKNQVSLWCLVKGFYPSDIAVEWESNGQPENNYKTTPPVLDSDGSFFLYSRLTVDKSRWQEGNVFSCSVMHEALHNHYTQKSLSLSLGK
light 2: EIVLTQSPGTLSLSPGERATLSCRASQSVSSSYLAWYQQKPGQAPRLLIYGASSRATGIPDRFSGSGSGTDFTLTISRLEPEDFAVYYCQQDYGFPWTFGQGTKVEIKRTVAAPSVFIFPPSDEQLKSGTASVVCLLNNFYPREAKVQWKVDNALQSGNSQESVTEQDSKDSTYSLSSTLTLSKADYEKHKVYACEVTHQGLSSPVTKSFNRGEC
notes: Full-length human IgG4 in knob-into-hole format; also called anti-TRGV9×CD123; Vγ9/CD123 bispecific
What is called EC50 is the concentration needed to bring the measured effect to its halfway point. The EC50 (read off the curve) is the concentration giving half of the maximal effect. B3: the EC50 was found to be 0.43 nM in assay [3], 0.354 nM in [4], 0.43 nM in assay [5] and 0.354 nM in [6]. The “EC50 (read off the curve)” value in [4] was ~0.05 mg/L.

B4: anti-TRGV9/anti-BCMA bispecific antibody (VG9SB10SC1087_P18_C12-Fab RF, BCMA-scFv (BCMB519-scFv)) (BCV9B101.001) (bispecific antibody, human IgG1, kappa, L234A L235A)
heavy: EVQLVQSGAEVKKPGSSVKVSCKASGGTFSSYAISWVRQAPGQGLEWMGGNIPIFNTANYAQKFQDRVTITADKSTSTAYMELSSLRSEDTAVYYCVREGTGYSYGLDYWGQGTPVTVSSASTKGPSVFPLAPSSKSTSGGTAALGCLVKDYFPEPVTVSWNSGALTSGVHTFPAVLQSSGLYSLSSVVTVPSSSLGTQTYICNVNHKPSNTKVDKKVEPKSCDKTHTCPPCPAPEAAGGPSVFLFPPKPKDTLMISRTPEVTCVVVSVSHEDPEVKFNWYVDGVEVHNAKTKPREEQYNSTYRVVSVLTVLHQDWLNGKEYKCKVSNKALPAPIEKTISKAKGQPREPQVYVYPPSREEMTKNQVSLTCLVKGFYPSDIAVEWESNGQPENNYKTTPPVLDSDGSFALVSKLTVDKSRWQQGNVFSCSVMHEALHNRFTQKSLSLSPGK
light: EIVMTQSPLSSPVTLGQPASISCRSSQSLIHSDGNTYLSWLQQRPGQPPRLLIYKISNRFSGVPDRFSGSGAGTDFTLKISRVEAEDVGIYYCMQAKQFPITFGQGTKVDIKRTVAAPSVFIFPPSDEQLKSGTASVVCLLNNFYPREAKVQWKVDNALQSGNSQESVTEQDSKDSTYSLSSTLTLSKADYEKHKVYACEVTHQGLSSPVTKSFNRGEC
scFv: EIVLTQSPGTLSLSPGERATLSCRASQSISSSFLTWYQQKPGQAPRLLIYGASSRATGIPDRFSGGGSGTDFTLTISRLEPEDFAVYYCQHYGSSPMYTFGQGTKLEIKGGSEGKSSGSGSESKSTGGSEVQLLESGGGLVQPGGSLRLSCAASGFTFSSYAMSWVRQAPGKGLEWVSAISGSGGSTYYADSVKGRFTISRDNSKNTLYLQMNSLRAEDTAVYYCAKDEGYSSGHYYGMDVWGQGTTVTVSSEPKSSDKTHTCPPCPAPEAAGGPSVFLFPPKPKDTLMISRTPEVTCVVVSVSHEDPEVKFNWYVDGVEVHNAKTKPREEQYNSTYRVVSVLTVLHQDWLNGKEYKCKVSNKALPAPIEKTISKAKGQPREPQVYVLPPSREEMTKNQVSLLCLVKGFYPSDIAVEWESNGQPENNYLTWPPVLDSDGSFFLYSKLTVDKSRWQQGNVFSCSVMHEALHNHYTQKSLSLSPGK
Consider B4, for which the “EC50 of γδ T-cell mediated cytotoxicity of H929 tumor cells” value in assay [7] was determined as 2.65 nM.

B5: anti-TRGV9/anti-BCMA bispecific antibody (VG9SB10SC1087_P19_C03-Fab RF, BCMA-scFv (BCMB519-scFv)) (BCV9B103.001) (bispecific antibody, human IgG1, kappa, L234A L235A)
heavy: QVQLQESGPGLVKPSQTLSLTCTVSGGSISSGGSYWSWIRQHPGKGLEWIGYIYNSGSTYYNPSLKSRVSMSVDTSKNQFSLKLSSVTAADTAVYYCARDSNYEWFFDLWGPGTLVTVSSASTKGPSVFPLAPSSKSTSGGTAALGCLVKDYFPEPVTVSWNSGALTSGVHTFPAVLQSSGLYSLSSVVTVPSSSLGTQTYICNVNHKPSNTKVDKKVEPKSCDKTHTCPPCPAPEAAGGPSVFLFPPKPKDTLMISRTPEVTCVVVSVSHEDPEVKFNWYVDGVEVHNAKTKPREEQYNSTYRVVSVLTVLHQDWLNGKEYKCKVSNKALPAPIEKTISKAKGQPREPQVYVYPPSREEMTKNQVSLTCLVKGFYPSDIAVEWESNGQPENNYKTTPPVLDSDGSFALVSKLTVDKSRWQQGNVFSCSVMHEALHNRFTQKSLSLSPGK
light: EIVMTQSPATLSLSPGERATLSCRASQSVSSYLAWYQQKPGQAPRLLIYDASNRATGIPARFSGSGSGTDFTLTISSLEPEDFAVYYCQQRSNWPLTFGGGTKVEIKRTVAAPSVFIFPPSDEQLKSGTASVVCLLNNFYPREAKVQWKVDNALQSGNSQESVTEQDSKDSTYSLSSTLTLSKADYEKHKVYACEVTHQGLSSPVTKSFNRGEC
scFv: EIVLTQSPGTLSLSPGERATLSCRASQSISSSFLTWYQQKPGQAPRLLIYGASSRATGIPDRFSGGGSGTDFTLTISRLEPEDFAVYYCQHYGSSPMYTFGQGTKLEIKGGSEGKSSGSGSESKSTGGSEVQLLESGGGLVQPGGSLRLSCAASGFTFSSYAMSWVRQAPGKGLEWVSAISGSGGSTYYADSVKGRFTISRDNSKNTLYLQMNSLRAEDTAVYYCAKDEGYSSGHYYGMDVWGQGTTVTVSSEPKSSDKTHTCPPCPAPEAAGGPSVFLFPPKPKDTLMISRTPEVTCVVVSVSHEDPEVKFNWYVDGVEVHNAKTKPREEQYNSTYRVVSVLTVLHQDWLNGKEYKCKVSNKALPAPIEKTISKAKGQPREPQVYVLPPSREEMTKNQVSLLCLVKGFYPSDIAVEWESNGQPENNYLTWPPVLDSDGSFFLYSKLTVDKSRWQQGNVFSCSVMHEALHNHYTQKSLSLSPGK
As to B5, in [8], the “EC50 of γδ T-cell mediated cytotoxicity of H929 tumor cells” value came to 5.84 nM.

B6: anti-TRGV9/anti-BCMA bispecific antibody (VG9SB10SC1087_P18_D08-Fab RF, BCMA-scFv (BCMB519-scFv)) (BCV9B100.001) (bispecific antibody, human IgG1, kappa, L234A L235A)
heavy: EVQLVQSGAEVKKPGSSVKVSCKASGDTFNNYAISWVRQAPGQGLEWMGGIIPFFGTPDYAQKFQGRVTITADKSTSTAYMELSGLRSEDTAVYYCARPGSGSPDYYYYDMDVWGQGTTVTVSSASTKGPSVFPLAPSSKSTSGGTAALGCLVKDYFPEPVTVSWNSGALTSGVHTFPAVLQSSGLYSLSSVVTVPSSSLGTQTYICNVNHKPSNTKVDKKVEPKSCDKTHTCPPCPAPEAAGGPSVFLFPPKPKDTLMISRTPEVTCVVVSVSHEDPEVKFNWYVDGVEVHNAKTKPREEQYNSTYRVVSVLTVLHQDWLNGKEYKCKVSNKALPAPIEKTISKAKGQPREPQVYVYPPSREEMTKNQVSLTCLVKGFYPSDIAVEWESNGQPENNYKTTPPVLDSDGSFALVSKLTVDKSRWQQGNVFSCSVMHEALHNRFTQKSLSLSPGK
light: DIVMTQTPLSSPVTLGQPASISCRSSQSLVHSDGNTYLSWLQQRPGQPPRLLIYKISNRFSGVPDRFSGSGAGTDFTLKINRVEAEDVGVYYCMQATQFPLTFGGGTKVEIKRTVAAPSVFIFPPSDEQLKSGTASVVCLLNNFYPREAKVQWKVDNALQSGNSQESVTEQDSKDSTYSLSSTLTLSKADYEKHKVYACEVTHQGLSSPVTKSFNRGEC
scFv: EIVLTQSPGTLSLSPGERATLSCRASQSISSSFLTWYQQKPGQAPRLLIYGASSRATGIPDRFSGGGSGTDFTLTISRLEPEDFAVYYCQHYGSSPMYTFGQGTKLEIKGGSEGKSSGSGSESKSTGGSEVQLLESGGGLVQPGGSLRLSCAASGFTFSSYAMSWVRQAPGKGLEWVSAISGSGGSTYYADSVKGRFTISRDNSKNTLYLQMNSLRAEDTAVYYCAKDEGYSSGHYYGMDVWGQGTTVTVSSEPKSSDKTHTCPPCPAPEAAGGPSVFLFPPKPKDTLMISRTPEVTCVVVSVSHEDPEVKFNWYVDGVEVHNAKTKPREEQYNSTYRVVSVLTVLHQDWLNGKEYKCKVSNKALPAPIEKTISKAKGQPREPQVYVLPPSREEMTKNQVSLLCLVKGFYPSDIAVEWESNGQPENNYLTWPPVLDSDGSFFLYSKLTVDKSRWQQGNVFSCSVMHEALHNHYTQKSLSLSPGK
As for B6, the “EC50 of γδ T-cell mediated cytotoxicity of H929 tumor cells” value in [9] worked out at 0.81 nM.

B7: anti-CD33 antibody (clone C33B904) (antibody, V domains shown)
VH: EVQLVESGGGLVQPGRSLRLSCAASGFTFDDYAMHWVRQAPGKGLEWVSGIGWSGGSIVYADSVKGRFTISRDNAKNSLYLQMNSLRAEDTALYYCAKDSPYGDFFDYWGQGTLVTVSS
VL: DIVMTQSPDSLAVSLGERATINCKSSQTVFYSSNNKNYLAWYQQKPGQPPKLLISWASTRKSGVPDRFSGSGSGTDFTLTVSSLQAEDVAVYYCQHYYSTPYTFGQGTKLEIK
With B7, the EC50 in assay [10] is ~134 nM; in assay [11] it was 82.2 nM; in assay [12], 16.4 nM.
